Results published in IntAct's records for PubMed 22364545.

B1: Fibroblast growth factor 14 (Homo sapiens), Q92915-2 (parent)
chain: MVKPVPLFRRTDFKLLLCNHKDLFFLRVSKLLDCFSPKSMWFLWNIFSKGTHMLQCLCGKSLKKNKNPTDPQLKGIVTRLYCRQGYYLQMHPDGALDGTKDDSTNSTLFNLIPVGLRVVAIQGVKTGLYIAMNGEGYLYPSELFTPECKFKESVFENYYVIYSSMLYRQQESGRAWFLGLNKEGQAMKGNRVKKTKPAAHFLPKPLEVAMYREPSLHDVGETVPKPGVTPSKSTSASAIMNGGKPVNKSKTT

Variants of: B1
Settings: with scn8a_human SCN8A
In the case of MVKPVPLFRRTDFKLLLCNHKDLFFLRVSKLLDCFSPKSMWFLWNIFSKGTHMLQCLCGKSLKKNKNPTDPQLKGIVTRLYCRQGYYLQMHPDGALDGTKDDSTNSTLFNLIPVGLRVVAIQGVKTGLYIAMNGEGYLYPSELFTPECKFKESVFENNYNIYSSMLYRQQESGRAWFLGLNKEGQAMKGNRVKKTKPAAHFLPKPLEVAMYREPSLHDVGETVPKPGVTPSKSTSASAIMNGGKPVNKSKTT [Y158N;V160N], the “effect of a mutation on the interaction” value is reported as “decreasing interaction strength”.
